Experimental data taken from PMC4402694, “A non-canonical mechanism for Crm1-export cargo complex assembly” (eLife, 2015).

Assays:
Details in all cases: both partners purified
His6-Ran = biological target: T1, His6-Ran (yeast (S. cerevisiae), UniProt P32835 1-219); assay: pull-down; GST fusion immobilised on GSH-Sepharose, incubated with 2 µM His6-Ran loaded with GTP, 1 hr at 4°C
T1 construct: Gsp1 (yeast Ran), wild type; loaded with GTP or with GDP before the assay; the two loadings are two assays; also called His6-Gsp1 (Ran) WT; RanGTP; not shown: His6, N-terminal, kept

His6-Ran^QLGTP [1] = biological target: T2, His6-Ran^QLGTP (yeast (S. cerevisiae), UniProt P32835 1-219, Gsp1Q71L); assay: pull-down; GST fusion immobilised on GSH-Sepharose in PBSKMT, incubated with one purified protein (2 µM His6-Ran variant, or 0.5 µM Slx9 or Slx9-1) for 1 hr at 4°C, competing E. coli lysates present; Coomassie or Western
T2 construct: Gsp1 (yeast Ran), GTP-stabilized mutant Q71L, equivalent to human RanQ69L; also called Gsp1Q71L; RanGTP; not shown: His6, N-terminal, kept

Crm1-His6 = Crm1-His6 (yeast (S. cerevisiae), UniProt P30822 1-1084); assay: pull-down; trimeric export complex formation: GST fusion immobilised on GSH-Sepharose, incubated with 2 µM His6-Ran^QLGTP and 50 nM Crm1-His6 together; competing E. coli lysates present; Coomassie or Western
His6-Ran^QLGTP [2] = biological target: T2, His6-Ran^QLGTP; assay: as above

Binder	binding result (His6-Ran)	binding result (His6-Ran^QLGTP [1])	binding result (Crm1-His6)	binding result (His6-Ran^QLGTP [2])
GST-Slx9 (natural protein, yeast (S. cerevisiae), UniProt P53251 1-210, looked up) MVAKKRNTLRSKVSARNSQNFGPDVANNGILDESYDIESDPRAFLHQPKETKKEKLLNRQNTFLSNLKGKSTLNDGIAANFDGISKSSIRRRKRKLREELKPRMQDLLTSLEQEKDLRGIIENSSKDMNNDDDIDMDSKIRFVDTKEMNLKKIEPGSVRIKKNQPNIRNQKGAKALAANETARFNQVLTNQDFQKNPFGALREVIKLQKQ	binds	binds		
GST-Ssb1C (domain or fragment, yeast (S. cerevisiae), UniProt P11484 524-613, looked up) NQAEEFKAADEAFAKKHEARQRLESYVASIEQTVTDPVLSSKLKRGSKSKIEAALSDALAALQIEDPSADELRKAEVGLKRVVTKAMSSR			binds	binds
